experiment: yeast display, Sf9 membrane polyspecificity reagent, FACS + sequencing; frameworks hold sequencing errors
Summary of the method: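 Genes from sorted yeast were amplified by colony PCR, read by MiSeq 2 × 250 sequencing and filtered on CDR length. These cells carried a synthetic nanobody library in Saccharomyces cerevisiae BJ5465 and were sorted by FACS into low and high (top ~1%) gates on anti-HA and streptavidin fluorescence. Polyreactivity is labelled according to the gate of origin.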

Row | Sequence | polyreactivity (PSR sort gate)
1 | QVQLVDSGGGLVQAGGSLRLSCAASGRTFWIYAMGWYRPAPGKERELVAAISRGGSTYADSVKGRFTISRDNAKNTVYLQMNSLKPEDTAVYYCAASTPQYQYYYWGQGTQVTVSS | high polyreactivity
2 | QVQLVESGGGLVQAGGSLRLSCAASGSILGDYGMGWYRQAPGKEREVVAAITWNGDSTYYADSVKGRFTISRDNAKNTVYLQMNSLKPEDTAVYYCAADLQDYKYYPWYGYWGQGTQVTVSS | low polyreactivity
3 | HVKLVESGGGLVQAGGSLRLSCAASGSIFEPYVMGWYRQAPGKERELVAAIRQTRGSTYYADSVKGRFTISRDNAKNTVYLQMNSLKPEDTAVYYCNAEQNPSGLYDYRGVEGEMGYWGQGTQVTVSS | low polyreactivity
4 | QFQLVESGGGLVQAGGSLRLSCAASGSTFVPNTMGWYRQAPGIERELVAAITYSGGSTYYADSVKGRFTISRDNAKNTVYLQMHSLKPEDTAVYYCAAEGTTWYYDMDYWGQGTQVTVSS | low polyreactivity
5 | QVQLVESGGGLVQAGGSLRLSCAASGSIFRYYAMGWYRPAPGKERELVAAISSRGGRTYYADSVKGRFTISRDNAKNTVYLQMNSLIPEDTAVYYCAARRYRYTTPFRYGYDYWGQGTQVTVSS | high polyreactivity
6 | QVQLVESGGGLVQAGGILSLSCAASGFTFTVYDMGWYRQAPGKERELVAVITSGDGTYYADSVKGRFTISRDNAKNTVYLQMNSLKPEDTAVYYCNARRYSSFRYRFAYDYWGQGTQVTVTS | low polyreactivity
7 | QVQLVESGGGLVQAGGSLRLSCAASGRTFGPYAMGWYRQAPGKEREFVAAISYSGGSTYYADSVKGRFTISRDNAKNTVYLQMNSLKPEDTAVYYCAAETYYGRIYWYIRDYWGQGTQVTVSS | low polyreactivity
8 | QVQLVESGGGLVQAGGSLSLSCAASGRTIIRNAMGWYRQAPGKERELVAAINSGGITNYADSVKGRFTISRDNAKNTVYLKMNSLKPEDTAVYYCNARGSYPPYRSYGYWGQGTQVTVSS | low polyreactivity
9 | QVQLVESGGGLVQAGGSLRLSCAASGHIFPTNPMGWYRQAPGKERQLVAVISESVGSTYYADSVKGRFTISRDNAKNTVYLQMNSLKPEDTAVYFCAKQSRYPSLDADYDYWGQGTQVTVSS | low polyreactivity
10 | QVQLQESGGGLVQAGGSLCMSCAASGSISDYIFMGWYRQAPGKEREFVAGIGIGGNTNYADSVKGRFTISRDNAKNTVYLQMNSLKPEDTAVYYCAANATYTDYYAYWGQGTKVTVSS | low polyreactivity
11 | QVQLVESGGCLVQAGGSLRLSCAASGSIFGAYVMGWYRQAPGKERELVAAITRRGGSTYYADSVKGRFTISRDNAKNTVYLQMNSLKPEDTAVYYCAARRGAGDGYWGQGTQVTVSS | high polyreactivity
12 | QVQLVESGGGLVQAGGSLRLSCAASGFIFVYNSMGWSRPAPGKEREFVASITWSGGRTYYADSVKGRFTISRDNAKNTVYLQMNSLKREVTAVYFCATKYPNSQVRRYDYWGQGTQVTVSS | low polyreactivity
13 | KVQLVESGGGLVQAGGSLRISCAASGSTLYRYAMGWYRQAPGKERELVAAISSSGGSTYYADSVKGRFTISRDNAKNTVYLQMNSLKPEDTAVYYCARVAPASGVRWYYYWGQGTQVTVSS | high polyreactivity
14 | QGQRVESGGGLVQAGGSLRLSCAASGRIFTFYAMGWYRPAPGKERELVAAITWGDGSTYYADSVKGRFTISRDNAKNTVYLQMNSLKPEDTAVYYCNKTYIDTTVYVVIMDYWGQGTQVTVSS | low polyreactivity
15 | QVQLVESGGGLVQAGGSLRLSCAASGSIFDFNAMGWYRQAPGKERELVAAITWGGGSTYYADSVKGRFTISRDNAKNTVYLQMNSLKPEDTAVYYCNAAYGRYRYDYWGQGTQVTVSS | low polyreactivity
16 | QVQLEESGGGLVQAGGSLRLSCAASGFIYVKYAMGWYRQAPGKERELVAAITNGGSTYYADSVKGRFTISRDNAKYTVYLQMNSLKPEDTAVYYCAAQYHDWWRRLLYRSFRPFDYWGQGTQVTVSS | low polyreactivity
17 | QVQLVESGGGLVQAGGSLRLSCAASGRTFAHNAMGWYRQAPGKERELVAAITWSGGTTYYADSVKGRFTISRDNAKNTVYLHMNSLKPEDTAVYYCNTYSYQPDPKYDYWGQGTQVTVSS | low polyreactivity
18 | QVQLEDSGGGLVQAGGSLRLSCAASGRTFRSNVMGWYRQAPGKERELVAAISKRGGSTFSADSVKGRFTISRDNAKNTVYLQMNSLKPEDTEVYYCAKDTPVYDYGTVYPDDYWGQGTQVTVSS | high polyreactivity
19 | QVQLVESGGCLVQAGGSLRLSCAASGITFRRYTMGWYRQAPGKERELVATISLSDGNTYYADSVKGRFTISRDNAKNSVYLQMNSLKPEDTAVYYCNADSTTQVYDYWGQGTQVTVSS | low polyreactivity
20 | PVQLVESGGGLVQAGGSLRLICAASGRIFEINAMGWYRQAPGKERELFAAITRGGRTYYADSVKGRFTSSRDNAMNTVYLQMTSLKPEDTAVYYCAAYGHIRSGFDCVDYWGQGTQVTVSS | high polyreactivity
21 | QVQLVESGGGLVQAGGSLRLSCAASGRIFDRNAMGWYRQARGKARELVARIDPGDDTNYADSVKGRFTISRDNAKNKVYLQMNSLQPEDTAVYYCATDPDYVLYRTAYYEYDYWGQGTQVTVSS | low polyreactivity
22 | QVQLVESGGGLVQAGGSLRLSCAASGRIFAGYTMGWYRQAPGKERELVAAISWSGGRTYYADSVKGRFTISRDNAKYTVYLQMNSLKPEDTAVYYCNKVGWYHNYYYWGQGTQVTVSS | high polyreactivity
23 | QVQLVESGGGLVQAGGSLRLSCAASGSTFLLNTMGWYRQAPGKERELVAAISSITGDTYYADSVKGRFTISRDNAKNTVYLQMNSLNPEDTAVYYCAAYLSETRPYLYDYWGQGTQVTVSS | low polyreactivity
24 | QVQLVESGGGLVQAGGSLRLSCAASGNIFSDNAMGWYRQAPGKERELVAAITSGGSTIYADSVKGRFTISRDNAKNTVYLQMNSLKPEDTAVYYCAADISYRHFLFDFWGQGTQVTVSS | low polyreactivity
25 | QVKLVESGGGLVQAGGSLLLSCDASGIIFKYYAMGWYRQAPGKERELVARITARGGRTYYADSVKGRFTISRDNAKNTVYLQMNSLKPEDTAFYYCAKKLRGWHTIITDYDYWGQGTQLTVSS | low polyreactivity
26 | QVQLVESGGGIVQAGGSLRLSCAASGRIFYINAMGWYRQSPGKERELVAAITGSGGRTYYADSVKGRFTISRDNAKNTVYLHINSLKPEDTAVYYCAAQKKHYSYSYWYDSLGQGTQVTVSS | high polyreactivity
27 | QVQLVESGGGLVQAGGSLRLSCAASGRTFYRYAMGWYRQPPGKESELVARIRATGGSTYYADSVKGRFTISRDYAKNTVYSQMNSLKPEDTAVYYCAAKIRWGSTWLGAGDYWGQGTQVTVSS | high polyreactivity
28 | QVQLVESGGGLVQAGGSHRLSCAASGSTFTYNAMGWYRQAPGKERELVASISSGTTTYYADSVKGRFTISRDNAKNTVYLQMNSLIPEDTAVYDCAVDSWSRVQGWLAHNYDYWGQGTQVTVSS | low polyreactivity
29 | QVQLVESGGGLVQAGGSLRLSCAASGIMFSSYAMLWYRQAPGKERELFAAISWSGGSTYYADSVKLRFTISRDNAKNTVYLQMNSLKPEDTAVYYCAAKSHWYKRGYWGQGTQVTVSS | low polyreactivity
30 | QVQLVESGGGLVQAGGSLRLSCAASGLIFSYYTMGWYRQAPGKERELVAAISSSAGSTYYADSVKGRCTISRDNAKNTVYCQMNSLKPEDTAVYYCNVRTLVQHHSSYSSRYESWGQGTHVTVSS | high polyreactivity

Source: the nanobody polyreactivity screen of Harvey et al. (2022)
